In article PMC4505335, “Selective targeting of PPARγ by the natural product chelerythrine with a unique binding mode and improved antidiabetic potency” (Scientific Reports, 2015):
Where no end group is shown, it is not given here. The star is where a group is joined. Biotin = O=C1N[C@H]2[C@H](CS[C@H]2CCCCC(=O)*)N1

T1: PPARγ (Homo sapiens, UniProt P37231)
T1 construct: gene PPARG; no SRC1 peptide; In-house His6-LBD 206-477 (E. coli) used for crystal and kinase assay
T1 sequence (P37231 234-505 limits assumed): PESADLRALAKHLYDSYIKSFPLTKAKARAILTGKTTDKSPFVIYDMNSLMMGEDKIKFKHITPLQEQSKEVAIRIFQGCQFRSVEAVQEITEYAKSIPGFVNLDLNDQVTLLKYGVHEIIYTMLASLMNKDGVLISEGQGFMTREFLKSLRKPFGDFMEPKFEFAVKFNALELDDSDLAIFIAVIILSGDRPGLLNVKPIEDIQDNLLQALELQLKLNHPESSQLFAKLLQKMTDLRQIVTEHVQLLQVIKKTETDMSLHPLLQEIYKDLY

T2: Human PPARγ LBD (residues 206–477) (human, UniProt P37231-2 206-477)
T2 construct: The tag is detected in the AlphaScreen (hexahistidine detection kit); also called NR1C3; source: E. coli BL21(DE3), purified (Ni HiTrap HP, SP-Sepharose); not shown: His6, N-terminal, kept
T2 sequence (looked up): T1 sequence (P37231 234-505 limits assumed)

B1: NCoR-2, a corepressor peptide from NCoR, N-terminally biotinylated (peptide)
peptide: Biotin-GHSFADPASNLGLEDIIRKALMGSF
notes: second corepressor motif peptide from NCoR (nuclear receptor corepressor 1; not the gene NCOR2/SMRT); also called NCoR-2 corepressor

Legend:
[1] = biological target: T1, PPARγ; assay: crystal structure at […] Å; Lantha TR-FRET competitive binding; AlphaScreen
[2] = biological target: T2, Human PPARγ LBD (residues 206–477); assay: AlphaScreen or HTRF; hexahistidine detection kit; about 20–40 nmol/l His6-PPARγ LBD and 20 nmol/l biotinylated peptide, 5 μg/ml donor and acceptor beads; 50 mmol/l MOPS, 50 mmol/l NaF, 0.05 mmol/l CHAPS, 0.1 mg/ml BSA, pH 7.4; with chelerythrine (5 μmol/l, and dose curves); details: both partners purified
[3] = biological target: T2, Human PPARγ LBD (residues 206–477); assay: AlphaScreen or HTRF; hexahistidine detection kit; about 20–40 nmol/l His6-PPARγ LBD and 20 nmol/l biotinylated peptide, 5 μg/ml donor and acceptor beads; 50 mmol/l MOPS, 50 mmol/l NaF, 0.05 mmol/l CHAPS, 0.1 mg/ml BSA, pH 7.4; with rosiglitazone (1 μmol/l, and dose curves); details: both partners purified

Molecule	binding result [3]	other results
COc1ccc2c(c[n+](C)c3c4cc5c(cc4ccc23)OCO5)c1OC [CHE, chelerythrine]		IC50 [1]: 566 nM
B1		binding result [2]: binds
Biotin-SPSSHSSLTERHKILHRLLQEGSP [SRC1 coactivator peptide, N-terminally biotinylated]	binds	
Biotin-QEPVSPKKKENALLRYLLDKDDTKD [SRC2 coactivator peptide, N-terminally biotinylated]	binds	
